Where a chain is given by its changes, count along the chain named.
Key:
human CD19 [1] = target: T1, human CD19 (human, UniProt P15391 20-291, biotinylated in the Biacore assay of Table 11); assay: SPR Biacore 8K, captured biotinylated CD19, scFv analyte
T1 construct: also called isolated CD19; Human CD19 Protein
T1 sequence (looked up): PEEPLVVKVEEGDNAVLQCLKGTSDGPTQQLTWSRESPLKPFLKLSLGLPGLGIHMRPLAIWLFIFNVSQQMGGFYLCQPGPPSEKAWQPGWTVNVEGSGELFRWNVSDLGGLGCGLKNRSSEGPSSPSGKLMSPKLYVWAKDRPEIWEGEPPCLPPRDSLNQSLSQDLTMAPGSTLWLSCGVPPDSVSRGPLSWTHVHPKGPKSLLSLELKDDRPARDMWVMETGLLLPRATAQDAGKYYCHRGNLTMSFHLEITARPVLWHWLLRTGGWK
Description: (§1) Additional kinetic analysis of the anti-CD19 VL-VH scFvs, with or without a disulfide bond introduced by Cys substitutions at position 44 of VH and position 100 of VL, was conducted by surface plasmon resonance (SPR). The scFv proteins were serially diluted and assessed at 25° C. in a HBS-EP+ running buffer system (10 mM HEPES pH 7.4, 150 mM NaCl, 3 mM EDTA, 0.05% Surfactant P20) using a Biacore 8K optical biosensor (Global Life Sciences Solutions USA, Marlborough, Mass.). The sample compartment was maintained at 10° C. for the duration of each experiment.
(§2) Each experiment cycle began with an injection (500 s at 2 μL/min) over flow cells 1 and 2 of a 1:20 solution of biotin CAPture reagent (Global Life Sciences Solutions USA) in running buffer. This was followed by an injection (300 s at 4.0 μL/min) of biotinylated CD-19 (40 nM) overflow cell 2. Upon capture of CD19 to the sensor surface, test scFvs (16.2 to 0.067 nM, 3-fold dilution in running buffer) was injected (300 s at 30 uL/min) over flow cells 1 and 2. The dissociation of the scFvs was monitored for a duration of 2564 s. Finally, an injection (90 s at 10 μL/min) of regeneration solution (6 M Guanidine-HCl in 0.25 M NaOH) overflow cells 1 and 2 was used to prepare the sensor surface for another cycle.

human CD19 [2] = target: T1, human CD19; assay: SPR Biacore 8K, captured biotinylated CD19, scFv with disulfide bond as analyte
Description: as §1, §2

[3] = target: T2, dimeric CD19 extracellular domain fused with human IgG1 Fc (human, UniProt P15391 20-291, limits assumed); assay: ForteBio instrument (called SPR in the text), dimeric CD19 extracellular domain-human IgG1 Fc; dimeric CD19 extracellular domain fused with human IgG1 Fc
T2 construct: extracellular domain; also called dimeric CD19 protein; not shown: human IgG1 Fc
T2 sequence (looked up): T1 sequence (looked up)
Description: (§3) As noted above, some of the constructs produced contained an anti-CD19 scFv having the amino acid sequence set forth in SEQ ID NO: 9 or 18. The binding affinity of the two CD19 binding domains to CD19 were measured by SPR using a monomeric CD19 extracellular domain and a dimeric CD19 extracellular domain fused with human IgG1 Fc. Binding kinetic parameters were measured using a ForteBio instrument generally as previously described (see, Estep et al. (2013) MAbs, 5(2): 270-78).

[4] = target: T3, monomeric CD19 extracellular domain (UniProt P15391 20-291, limits assumed); assay: ForteBio instrument (called SPR in the text), monomeric CD19 extracellular domain; monomeric CD19 protein
T3 construct: extracellular domain; also called monomeric CD19 protein
T3 sequence (looked up): T1 sequence (looked up)
Description: as §3

mouse serum albumin [5] = target: T4, mouse serum albumin (mouse, UniProt P07724 25-608); assay: ratio of the Octet KD for mouse serum albumin to that for human serum albumin
T4 construct: also called MSA
T4 sequence (P07724 25-608 limits assumed): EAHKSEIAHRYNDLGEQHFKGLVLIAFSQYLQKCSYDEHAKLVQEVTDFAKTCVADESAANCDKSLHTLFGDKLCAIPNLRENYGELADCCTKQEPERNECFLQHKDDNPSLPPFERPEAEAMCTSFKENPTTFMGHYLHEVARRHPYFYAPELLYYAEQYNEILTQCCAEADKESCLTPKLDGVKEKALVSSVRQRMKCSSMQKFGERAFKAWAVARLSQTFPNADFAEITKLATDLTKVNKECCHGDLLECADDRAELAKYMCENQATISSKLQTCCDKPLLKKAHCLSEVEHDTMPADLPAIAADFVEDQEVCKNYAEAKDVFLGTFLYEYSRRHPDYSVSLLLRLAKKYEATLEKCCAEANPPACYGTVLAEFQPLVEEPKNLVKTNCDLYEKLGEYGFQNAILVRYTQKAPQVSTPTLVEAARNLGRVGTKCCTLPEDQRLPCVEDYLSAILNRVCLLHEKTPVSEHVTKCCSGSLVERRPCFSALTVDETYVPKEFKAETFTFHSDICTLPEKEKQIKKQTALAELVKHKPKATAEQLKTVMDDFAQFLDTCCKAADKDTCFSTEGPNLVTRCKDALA

human serum albumin = target: T5, human serum albumin (human, UniProt P02768 25-609); assay: Octet HTX (ForteBio), HCAb on AHC sensor, 1:1 fit
T5 construct: also called HSA

mouse serum albumin [6] = target: T4, mouse serum albumin; assay: Octet HTX (ForteBio), HCAb on AHC sensor, 1:1 fit
cynomolgus serum albumin = cynomolgus serum albumin (cynomolgus, UniProt A2V9Z4 25-608); assay: Octet HTX (ForteBio), HCAb on AHC sensor, 1:1 fit
cynomolgus serum albumin, sequence (A2V9Z4 25-608 limits assumed): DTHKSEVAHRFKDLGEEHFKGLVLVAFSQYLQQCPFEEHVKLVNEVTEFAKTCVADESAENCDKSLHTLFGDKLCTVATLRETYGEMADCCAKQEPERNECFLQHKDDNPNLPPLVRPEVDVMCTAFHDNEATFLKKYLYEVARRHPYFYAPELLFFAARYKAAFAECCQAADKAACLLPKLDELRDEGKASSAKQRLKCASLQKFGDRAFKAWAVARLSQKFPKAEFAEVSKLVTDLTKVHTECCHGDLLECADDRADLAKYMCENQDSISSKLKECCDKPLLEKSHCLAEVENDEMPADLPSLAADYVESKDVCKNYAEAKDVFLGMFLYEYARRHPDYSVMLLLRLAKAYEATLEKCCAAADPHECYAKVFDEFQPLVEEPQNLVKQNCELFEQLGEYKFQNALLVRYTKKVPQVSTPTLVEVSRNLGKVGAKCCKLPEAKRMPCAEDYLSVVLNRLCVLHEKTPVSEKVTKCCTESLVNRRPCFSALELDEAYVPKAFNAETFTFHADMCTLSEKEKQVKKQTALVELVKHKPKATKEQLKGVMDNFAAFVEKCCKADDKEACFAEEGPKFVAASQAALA

protein A = protein A (UniProt P38507 37-327); assay: Octet HTX (ForteBio), HCAb on AHC sensor; legend: no binding was detected under the conditions of this assay
human CD3 [7] = target: human CD3 (human); assay: method not given
human CD3 (human), sequence (chain, as listed by the source): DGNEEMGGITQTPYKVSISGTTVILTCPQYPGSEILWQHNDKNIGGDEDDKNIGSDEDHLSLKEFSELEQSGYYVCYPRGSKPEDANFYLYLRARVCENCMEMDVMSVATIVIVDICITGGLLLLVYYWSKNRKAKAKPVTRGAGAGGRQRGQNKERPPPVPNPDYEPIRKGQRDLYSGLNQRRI

human CD3 [8] = target: human CD3 (human); assay: SPR, BiaCore method of WO2018208864A1
human CD3 [9] = target: human CD3 (human); assay: BLI, Octet method of WO2018208864A1

B1: CNG-CD19-101 VL-VH scFv (scFv)
scFv: DIVMTQTPLSLSVTPGQPASISCKSSQSLETTTGTTYLNWYLQKPGQSPQLLIYRASKRFSGVPDRFSGSGSGTDFTLKISRVEAEDVGVYYCLQLLEDPYTFGQGTKLEIKGGGGSGGGGSGGGGSQVQLVQSGAEVKKPGASVKVSCKASGYDFTDYIMHWVRQAPGQGLEWMGYINPYNDGSKYTDKFQERVTMTSDTSISTAYMELSRLRSDDTAVYYCARGTYYYGPELFDYWGQGTTVTVSS
notes: scFv without the engineered disulfide
Work on B1 yielded a Kd (human CD19 [1]) of 0.00673 nM and a koff (human CD19 [1]) of 2e-05 s⁻¹.

B2: CNG-CD19-103 VL-VH scFv with disulfide bond (scFv)
chain: B1 scFv with T32A, A56V, K58R, T102S, Q105C, D155T, G171C, D189E, E193G, E233Q
Work on B2 yielded a Kd (human CD19 [2]) of 0.0178 nM and a koff (human CD19 [2]) of 4.85e-05 s⁻¹.

B3: CNG-CD19-103 VL-VH scFv (scFv)
scFv: B1 scFv with T32A, A56V, K58R, T102S, D155T, D189E, E193G, E233Q
B3 showed a Kd (human CD19 [1]) of 0.00991 nM and a koff (human CD19 [1]) of 2.41e-05 s⁻¹.

B4: CNG-CD19-101 VL-VH scFv with disulfide bond (scFv)
scFv: B1 scFv with Q105C, G171C
notes: Cys at position 44 of VH and 100 of VL already in the entry; also called scFv with Cys substitutions
In the case of B4, the Kd (human CD19 [2]) is reported as 0.0139 nM and the koff (human CD19 [2]) is reported as 4.88e-05 s⁻¹.

B5: SEQ ID NO 18 (scFv)
scFv: QVQLQESGPGLVKPSQTLSLTCTVSGGSISTSGMGVGWIRQHPGKGLEWIGHIWWDDDKRYNPALKSRVTISVDTSKNQFSLKLSSVTAADTAVYYCARMELWSYYFDYWGQGTLVTVSSGGGGSGGGGSGGGGSEIVLTQSPATLSLSPGERATLSCSASSSVSYMHWYQQKPGQAPRLLIYDTSKLASGIPARFSGSGSGTDFTLTISSLEPEDFAVYYCFQGSVYPFTFGQGTKLEIKR
notes: its limits are my reading; also called anti-CD19 scFv of tAb0033 to tAb0038
Binder B5 has a Kd [3] of 15 nM and a Kd [4] of 11 nM.

B6: CNG-CD19-707 VL-VH scFv (scFv)
scFv: EIVLTQSPATLSLSPGERATLSCSASSSVGYMHWYQQKPGQAPRLLIYDTSKLASGIPARFSGSGSGTDFTLTISSLEPEDFAVYYCFQGSVYPFTFGQGTKLEIKGGGGSGGGGSGGGGSQVQLQESGPGLVKPSQTLSLTCTVSGGSISTSTMGVGWIRQHPGKGLEWIGFIWWDDDKRYNPNLKSRVTMSVDTSKNQFSLKLSSVTAADTAVYYCARMELWSYYFDPWGQGTLVTVSS
In the case of B6, the Kd (human CD19 [1]) is reported as 0.0122 nM and the koff (human CD19 [1]) is reported as 2e-05 s⁻¹.

B7: CNG-CD19-701 VL-VH scFv with disulfide bond (scFv)
chain: B6 scFv with Q99C, G167C, P230Y
Binder B7 has a Kd (human CD19 [2]) of 0.0141 nM and a koff (human CD19 [2]) of 2e-05 s⁻¹.

B8: CNG-CD19-707 VL-VH scFv with disulfide bond (scFv)
chain: B6 scFv with Q99C, G167C
Work on B8 yielded a Kd (human CD19 [2]) of 0.0117 nM and a koff (human CD19 [2]) of 2e-05 s⁻¹.

B9: CNG-CD19-710 VL-VH scFv with disulfide bond (scFv)
chain: B6 scFv with V29F, G30S, Q99C, G148V, T154S, G167C, F173H, I174A, N185A, M192I
B9 gave a Kd (human CD19 [2]) of 0.0213 nM and a koff (human CD19 [2]) of 2.54e-05 s⁻¹.

B10: CNG-CD19-701 VL-VH scFv (scFv)
scFv: B6 scFv with P230Y
B10 was tested, and the Kd (human CD19 [1]) was 0.0148 nM and the koff (human CD19 [1]) was 2e-05 s⁻¹.

B11: CNG-CD19-710 VL-VH scFv (scFv)
scFv: B6 scFv with V29F, G30S, G148V, T154S, F173H, I174A, N185A, M192I
In the case of B11, the Kd (human CD19 [1]) is reported as 0.0218 nM and the koff (human CD19 [1]) is reported as 2e-05 s⁻¹.

B12: CNG-HSA-106 (VHH)
VHH: KVQLLESGGGLVQPGGSLRLSCAASGFTFSSFGMSWVRQAPGKGLEWVSSISGSGSDTLYADSVRGRFTISRDNSKNTLYLQMDSLRAEDTAVYYCTIGGSRSISSQGTLVTVSS
B12 was tested, and the “Ratio of MSA-KD to HSA-KD” value (mouse serum albumin [5]) was 3.41, the Kd (human serum albumin) was 17 nM and the koff (human serum albumin) was 0.00297 s⁻¹. The Kd (mouse serum albumin [6]) was 57.8 nM, the koff (mouse serum albumin [6]) was 0.0124 s⁻¹ and the Kd (cynomolgus serum albumin) was 14.4 nM. The koff (cynomolgus serum albumin) was 0.00238 s⁻¹ and the binding result (protein A) was “no binding”.

B13: SEQ ID NO 9 (scFv)
scFv: QVQLVQSGAEVKKPGASVKVSCKASGYTFTDYIMHWVRQAPGQGLEWMGYINPYNDGSKYTEKFQGRVTMTSDTSISTAYMELSRLRSDDTAVYYCARGTYYYGPQLFDYWGQGTTVTVSSGGGGSGGGGSGGGGSDIVMTQTPLSLSVTPGQPASISCKSSQSLETSTGTTYLNWYLQKPGQSPQLLIYRVSKRFSGVPDRFSGSGSGTDFTLKISRVEAEDVGVYYCLQLLEDPYTFGQGTKLEIK
notes: its limits are my reading; also called anti-CD19 scFv of tAb0027 to tAb0032
Binder B13 has a Kd [3] of 5 nM and a Kd [4] of 7 nM.

B14: CNG-CD3-1 scFv construct (scFv)
scFv: DIVMTQSPDSLAVSLGERATINCKSSQSLLNARTGKNYLAWYQQKPGQPPKLLIYWASTRESGVPDRFSGSGSGTDFTLTISSLQAEDVAVYYCKQSYSRRTFGGGTKVEIKGGGGSGGGGSGGGGSGGGGSQVQLVQSGAEVKKPGASVKVSCKASGFNIKDYYMHWVRQAPGQRLEWMGWIDLENANTIYDAKFQGRVTITRDTSASTAYMELSSLRSEDTAVYYCARDAYGRYFYDVWGQGTLVTVSS
B14 was tested, and the Kd (human CD3 [7]) was 1.6 nM, the Kd (human CD3 [8]) was 1.9 nM and the Kd (human CD3 [9]) was 4.4 nM.

B15: CNG-CD3-3 scFv construct (scFv)
scFv: B14 scFv with R100L, N187E, A188G
In the case of B15, the Kd (human CD3 [8]) is reported as 26 nM and the Kd (human CD3 [9]) is reported as 54 nM.

B16: CNG-CD3-2 scFv construct (scFv)
scFv: B14 scFv with A232Q
B16 was tested, and the Kd (human CD3 [8]) was 16 nM and the Kd (human CD3 [9]) was 27 nM.
